Laboratory results from doi:10.1101/2021.10.01.462756 (bioRxiv, 2021).

B3: Ddc1 (natural protein)
chain: MSFKATITESGKQNIWFRAIYVLSTIQDDIKITVTTNELIAWSMNETDTTLCQVRFQKSFFEEYEFKPHEIVFGENGVQVIEDTYGNSHKLYSFRVNGRHLTTISRKPDGDGIKSFTIAVNNTSTCPESLANRLIVVIEMDSLIVKEYCPQFQPIKYDPIIINLKYKRRFLDVFGTAASDRNPQEPLDPKLLDVFTNTERELTSALFNEEVESDIRKRNQLTAADEINYICCNSTLLKNFLDNCNVNVTDEVKLEINVHRLSITAFTKAVYGKNNDLLRNALSMSNTISTLDLEHYCLFTTIEDEKQDKRSHSKRREHMKSIIFKLKDFKNFITIGPSWKTTQDGNDNISLWFCHPGDPILMQMQKPGVKLELVEVTDSNINDDILEGKFIKTAISGSKEEAGLKDNKESCESPLKSKTALKRENLPHSVAGTRNSPLKVSYLTPDNGSTVAKTYRNNTARKLFVEEQSQSTNYEQDKRFRQASSVHMNMNREQSFDIGTTHEVACPRNESNSLKRSIADICNETEDPTQQSTFAKRADTTVTWGKALPAADDEVSCSNIDRKGMLKKEKLKHMQGLLNSQNDTSNHKKQDNKEMEDGLGLTQVEKPRGIFD
B5: Rad24 (natural protein)
chain: MDSTNLNKRPLLQYSLSSLGSQITKWSSSRPTSPVRKARSTENDFLSKQDTSSILPSINDDGGEQWYEKFKPNCLEQVAIHKRKLKDVQEALDAMFLPNAKHRILLLSGPSGCSKSTVIKELSKILVPKYRQNSNGTSFRSTPNEHKVTEFRGDCIVNDLPQMESFSEFLKGARYLVMSNLSLILIEDLPNVFHIDTRRRFQQLILQWLYSSEPLLPPLVICITECEIPENDNNYRKFGIDYTFSAETIMNKEILMHPRLKRIKFNPINSTLLKKHLKFICVQNMKMLKEKNKWNKRQEVIDYIAQETGDIRSAITTLQFWATSSGSLPISTRESTISYFHAIGKVIHGSHSTNNDNEMINNLFENSNNLLSKEDFKLGILENYNTFNKGEFSISDASSIVDCLSECDNMNGLPESNEYGLREVRKTFRNISKQGHNHGTVYFPREWKVRKLQNSFKVQAEDWLNVSLYKYNAVHSFRNITLEFGYYAPLIRKCQSYKKKYILYYLKNLPSGSSGPKQTMDKFSDIMKVENGIDVVDRIGGPIEALSVEDGLAPLMDNDSNNCDHLEDQKKERDRRLRMLIDQYERNVMMANDDLEDEETSFNDDPIVDSDSDNSNNIGNETFGRSDEDESLCEILSQRQPRKAPVISESLSDSDLEIL

What was measured:
Test in all cases: cryo-EM structure
Ddc1 = target: B3
Rad24 = target: B5
[1] = target: T1, 9-1-1 clamp (Ddc1–Mec3–Rad17) (S. cerevisiae, UniProt Q08949;Q02574;P48581)
T1 sequence 1: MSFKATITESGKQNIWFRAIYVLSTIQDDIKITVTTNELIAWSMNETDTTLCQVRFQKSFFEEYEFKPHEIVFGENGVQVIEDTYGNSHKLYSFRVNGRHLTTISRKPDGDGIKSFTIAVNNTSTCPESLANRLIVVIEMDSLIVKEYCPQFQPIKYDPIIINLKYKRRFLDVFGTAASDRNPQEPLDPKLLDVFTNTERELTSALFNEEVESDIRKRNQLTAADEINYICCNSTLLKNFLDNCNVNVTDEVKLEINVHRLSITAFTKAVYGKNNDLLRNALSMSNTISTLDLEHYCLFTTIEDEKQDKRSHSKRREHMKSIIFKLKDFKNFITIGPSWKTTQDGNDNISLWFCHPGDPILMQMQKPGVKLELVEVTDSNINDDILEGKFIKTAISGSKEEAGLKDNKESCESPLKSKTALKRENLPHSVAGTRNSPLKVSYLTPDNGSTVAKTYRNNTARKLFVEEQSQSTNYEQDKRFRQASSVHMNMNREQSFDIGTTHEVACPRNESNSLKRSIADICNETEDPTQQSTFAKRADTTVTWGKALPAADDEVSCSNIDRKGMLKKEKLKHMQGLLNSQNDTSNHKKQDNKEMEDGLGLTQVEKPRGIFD
T1 sequence 2: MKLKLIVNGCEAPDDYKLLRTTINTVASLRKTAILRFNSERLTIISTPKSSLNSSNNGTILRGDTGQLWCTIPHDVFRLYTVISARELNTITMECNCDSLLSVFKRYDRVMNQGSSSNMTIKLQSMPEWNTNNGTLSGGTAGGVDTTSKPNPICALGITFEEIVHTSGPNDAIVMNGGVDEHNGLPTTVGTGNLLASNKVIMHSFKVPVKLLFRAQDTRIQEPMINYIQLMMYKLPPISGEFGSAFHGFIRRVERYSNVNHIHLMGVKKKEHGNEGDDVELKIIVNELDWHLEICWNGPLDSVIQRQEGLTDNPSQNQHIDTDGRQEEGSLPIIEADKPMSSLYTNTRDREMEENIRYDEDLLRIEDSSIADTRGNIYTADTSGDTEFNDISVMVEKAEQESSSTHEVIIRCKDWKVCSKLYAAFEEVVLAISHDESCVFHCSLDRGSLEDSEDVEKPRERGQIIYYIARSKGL
T1 sequence 3: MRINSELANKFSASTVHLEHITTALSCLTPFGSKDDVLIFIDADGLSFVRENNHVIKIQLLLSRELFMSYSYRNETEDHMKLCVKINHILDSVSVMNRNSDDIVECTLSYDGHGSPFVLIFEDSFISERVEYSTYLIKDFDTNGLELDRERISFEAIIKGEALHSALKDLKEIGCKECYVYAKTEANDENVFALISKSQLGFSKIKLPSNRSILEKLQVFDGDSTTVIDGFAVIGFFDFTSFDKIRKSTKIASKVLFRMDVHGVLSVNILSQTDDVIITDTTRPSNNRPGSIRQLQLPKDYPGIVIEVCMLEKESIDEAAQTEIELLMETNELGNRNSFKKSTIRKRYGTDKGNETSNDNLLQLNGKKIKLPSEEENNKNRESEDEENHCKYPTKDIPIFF

Rad17 = target: T2, Rad17 (S. cerevisiae, UniProt P48581 1-401)
T2 sequence: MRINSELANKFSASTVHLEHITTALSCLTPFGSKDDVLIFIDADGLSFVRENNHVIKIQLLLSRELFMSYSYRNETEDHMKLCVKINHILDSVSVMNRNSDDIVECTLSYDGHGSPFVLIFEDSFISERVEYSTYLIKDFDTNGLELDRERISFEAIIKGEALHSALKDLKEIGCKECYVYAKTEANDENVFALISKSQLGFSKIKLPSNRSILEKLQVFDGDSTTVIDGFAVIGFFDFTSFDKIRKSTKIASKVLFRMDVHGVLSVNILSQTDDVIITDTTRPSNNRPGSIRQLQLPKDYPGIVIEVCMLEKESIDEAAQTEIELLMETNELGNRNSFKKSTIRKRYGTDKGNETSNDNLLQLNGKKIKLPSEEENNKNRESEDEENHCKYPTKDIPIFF

B1: Rfc2 (natural protein)
chain: MFEGFGPNKKRKISKLAAEQSLAQQPWVEKYRPKNLDEVTAQDHAVTVLKKTLKSANLPHMLFYGPPGTGKTSTILALTKELYGPDLMKSRILELNASDERGISIVREKVKNFARLTVSKPSKHDLENYPCPPYKIIILDEADSMTADAQSALRRTMETYSGVTRFCLICNYVTRIIDPLASRCSKFRFKALDASNAIDRLRFISEQENVKCDDGVLERILDISAGDLRRGITLLQSASKGAQYLGDGKNITSTQVEELAGVVPHDILIEIVEKVKSGDFDEIKKYVNTFMKSGWSAASVVNQLHEYYITNDNFDTNFKNQISWLLFTTDSRLNNGTNEHIQLLNLLVKISQL
binding result (Ddc1): binds

B2: His-PK-Mec3 (natural protein)
chain: MKLKLIVNGCEAPDDYKLLRTTINTVASLRKTAILRFNSERLTIISTPKSSLNSSNNGTILRGDTGQLWCTIPHDVFRLYTVISARELNTITMECNCDSLLSVFKRYDRVMNQGSSSNMTIKLQSMPEWNTNNGTLSGGTAGGVDTTSKPNPICALGITFEEIVHTSGPNDAIVMNGGVDEHNGLPTTVGTGNLLASNKVIMHSFKVPVKLLFRAQDTRIQEPMINYIQLMMYKLPPISGEFGSAFHGFIRRVERYSNVNHIHLMGVKKKEHGNEGDDVELKIIVNELDWHLEICWNGPLDSVIQRQEGLTDNPSQNQHIDTDGRQEEGSLPIIEADKPMSSLYTNTRDREMEENIRYDEDLLRIEDSSIADTRGNIYTADTSGDTEFNDISVMVEKAEQESSSTHEVIIRCKDWKVCSKLYAAFEEVVLAISHDESCVFHCSLDRGSLEDSEDVEKPRERGQIIYYIARSKGL
binding result (Ddc1): binds

B3
binding result (Rad24): binds

B4: Rfc5 (natural protein)
chain: MSLWVDKYRPKSLNALSHNEELTNFLKSLSDQPRDLPHLLLYGPNGTGKKTRCMALLESIFGPGVYRLKIDVRQFVTASNRKLELNVVSSPYHLEITPSDMGNNDRIVIQELLKEVAQMEQVDFQDSKDGLAHRYKCVIINEANSLTKDAQAALRRTMEKYSKNIRLIMVCDSMSPIIAPIKSRCLLIRCPAPSDSEISTILSDVVTNERIQLETKDILKRIAQASNGNLRVSLLMLESMALNNELALKSSSPIIKPDWIIVIHKLTRKIVKERSVNSLIECRAVLYDLLAHCIPANIILKELTFSLLDVETLNTTNKSSIIEYSSVFDERLSLGNKAIFHLEGFIAKVMCCLD
binding result [1]: binds | binding result (Rad24): binds

B5
binding result [1]: binds

B6: Rfc4 (natural protein)
chain: MSKTLSLQLPWVEKYRPQVLSDIVGNKETIDRLQQIAKDGNMPHMIISGMPGIGKTTSVHCLAHELLGRSYADGVLELNASDDRGIDVVRNQIKHFAQKKLHLPPGKHKIVILDEADSMTAGAQQALRRTMELYSNSTRFAFACNQSNKIIEPLQSRCAILRYSKLSDEDVLKRLLQIIKLEDVKYTNDGLEAIIFTAEGDMRQAINNLQSTVAGHGLVNADNVFKIVDSPHPLIVKKMLLASNLEDSIQILRTDLWKKGYSSIDIVTTSFRVTKNLAQVKESVRLEMIKEIGLTHMRILEGVGTYLQLASMLAKIHKLNNKA
binding result (Rad17): binds | binding result (Rad24): binds

B7: Rfc3 (natural protein)
chain: MSTSTEKRSKENLPWVEKYRPETLDEVYGQNEVITTVRKFVDEGKLPHLLFYGPPGTGKTSTIVALAREIYGKNYSNMVLELNASDDRGIDVVRNQIKDFASTRQIFSKGFKLIILDEADAMTNAAQNALRRVIERYTKNTRFCVLANYAHKLTPALLSRCTRFRFQPLPQEAIERRIANVLVHEKLKLSPNAEKALIELSNGDMRRVLNVLQSCKATLDNPDEDEISDDVIYECCGAPRPSDLKAVLKSILEDDWGTAHYTLNKVRSAKGLALIDLIEGIVKILEDYELQNEETRVHLLTKLADIEYSISKGGNDQIQGSAVIGAIKASFENETVKANV
binding result (Rad17): binds
